Data taken from the DeepSol protein solubility set.

Assay: soluble on expression in E. coli; label from the status in PepcDB or PDB records
With “MAISSRNTLLAALAFIAFQAQAVNVTVAYQTSAEPAKVAQADNTFAKESGATVDWRKFDSGASIVRALASGDVQIGNLGSSPLAVAASQQVPIEVFLLASKLGNSEALVVKKTISKPEDLIGKRIAVPFISTTHYSLLAALKHWGIKPGQVEIVNLQPPAIIAAWQRGDIDGAYVWAPAVNALEKDGKVLTDSEQVGQWGAPTLDVWVVRKDFAEKHPEVVKAFSKSAIDAQQPYIANPDVWLKQPENISKLARLSGVPEGDVPGLVKGNTYLTPQQQTAELTGPVNKAIIDTAQFLKEQGKVPAVANDYSQYVTSRFVQ” the “soluble on expression in E. coli” value was “not soluble”.
With “MAITNIKCVIFDCDGTLVDSERLCCQALVNVFNQHGAELTMEECVSHFKGGKLADILLDTKELMNINVPIDVLEPQYRTEVQKLFVRHLQPMDGAKRLIQFLDSHNIEYCVASNGPKDKIEHALELTGLLDAFKGKVFSAFEANSWKPEPDLIMYSAMSMGFLPSDCLYIDDTPKGVEAGLNAGIKTVQLFNGEAINRVDDDRVIRIQHLDELKEQLMGCSV” the “soluble on expression in E. coli” value was “not soluble”.
With “MAKDIKFSEEARRSMLRGVDTLANAVKVTLGPKGRNVVLEKKFGSPLITNDGVTIAKEIELEDAFENMGAKLVAEVASKTNDVAGDGTTTATVLAQAMIREGLKNVTAGANPMGLRKGIEKAVVAAVEELKTISKPIEGKSSIAQVAAISAADEEVGQLIAEAMERVGNDGVITLEESKGFTTELDVVEGMQFDRGYASPYMITDSDKMEAVLDNPYILITDKKISNIQEILPVLEQVVQQGKPLLIIAEDVEGEALATLVVNKLRGTFNVVAVKAPGFGDRRKAMLEDIAILTGGEVITEELGRDLKSATVESLGRAGKVVVTKENTTVVEGVGSTEQIEARIGQIRAQLEETTSEFDREKLQERLAKLVGGVAVIKVGAATETELKERKLRIEDALNSTRAAVEEGIVAGGGTSLMNVYTKVASIVAEGDEATGINIVLRALEEPVRQIAINAGLEGSVVVERLKGEKVGVGFNAATGEWVNMLETGIVDPAKVTRSALQNAASVAAMFLTTEAVVADKPEPNAPAMPDMGGMGMGGMGGMM” the “soluble on expression in E. coli” value was “not soluble”.
With “MAKEKARYFTFLLYPESIPSDWELKLETLGVPMAISPLHDKDKSSIKGQKYKKAHYHVLYIAKNPVTADSVRKKIKLLLGEKSLAMVQVVLNVENMYLYLTHESKDAIAKKKHVYDKADIKLINNFDIDRYVTLDVEEKTELFNVVVSLIRAYTLQNIFDLYDFIDENGETYGLTINLVNEVIAGKTGFMKLLFDGAYQRSKRGTKNEER” the “soluble on expression in E. coli” value was “soluble”.
For “MAKGSSDKDNGYGNIRTSTSLSICCQDSHLTTPIAPIAPELYSLKVPKDYTPETTSTMRRSLESRLAWLGRQSYVFRSLKQLETVTHNATIRTFFWKDGSVSSSTGGNDGFWIKDELHAGA”, the “soluble on expression in E. coli” value was “not soluble”.
For “MAKGTPVTLTTNTEGATIYYTLDGSNPTNKSVRYNGRIVVNENSVIKAIAEKEGLTSSAISTFSFVIVNNEPVRIHDIQGKSHLSPYNGKKVYNVEGVVTALDKNGFYIEDNQPDNDPATSEGMYVYKKDANVAVGDLIQVDGVVEEYVGPGYAERFDTDLTTTEIKASRVVVIAKDQVLPAPIVLGENGVKIPDQIIDNDAFGLFDPNEDAIDFYESVEGMRVTMPTPKIIAPQKNGNLYVTVKNGGNKVVTKYGTPVLDENQLNPERLSVKVPRDYVAKVGDTFTGDITGVVGYDYGSFRIAPITELPSVVDGGFKQIGANIQPRLEHHHHHH”, the “soluble on expression in E. coli” value was “not soluble”.
In the case of “MAKHGADEPSSRSGSPDREGRASEDRSLLHQRLAVRELIDTEVSYLHMLQLCASDIRSRLQQLPQGDLDVLFSNIDDIIKVNSRFLHDLQETASKEEEQVQLVGNIFLEFQEELEQVYKVYCASYDQALLLVDTYRKEPELQRHIQGIVEAVVPQAGSSGLSFLLVIPLQRITRYPLLLQKILENTVPDASAYPVLQRAVSALQDVNTNINEYKMRKEVASKYTKVEQLTLRERLARINTHTLSKKTTRLSQLLKQEAGLIPRTEDKEFDDLEERFQWVSLCVTELKNNVAAYLDNLQGAVGFYHWLTPTQMIDGLALGESTPGPLIMVVAFVGFLAAYNHSLLGAEHQFIAVLQDVRDHRITQVRAAEILNLSTRQITRLLQKLNQDGVSGLAHASRGQPGHHRHDELLKSKCLSIISEHLLGFGPTLAHEKLSSIFDLNIPVETVRRWMMANDLWIPRSKRLKRPYQPRYNRDCFGELIQIDGSYHDWFEGRAAKCCLLVYIDDATGKLLHLRFCEAETTFDYMLSTRAYIEQYGKPLAFYSDKHSVFRVNQKSRKDSQITQFGRILNELNIDIIFANSPQAKGRVERANRTLQDRLIKEMRLEGISSIAEANAWLPCFIEHFNQKFAKCARNSKNLHRSLTESDAELEDIFTWQEPRKVTKNLTITYDKCIYLLEPTELNHKLVGQYISFLEYPDGTVALMHEGRKINYSVFNKLAGLQQNEVVENKRLGSVLAHIQQQHEELEKQNKRSRLKKSMPSRKAQKAVIEQRKLNPVLDSCG”, the “soluble on expression in E. coli” value is reported as “soluble”.
For “MAKIALIGASGNAGSRILKELSDRGHQVTAIARNPEKIAALPNVVAKKGDVFDQAALSELLKGHDAVISSVHFTASDPATLIEAVRASGVQRYLVVGGAGSLEIAPGQRVVDLPDFPAAYKAEATKGAEFLDKLKQEKQLDWTFLSPSAEFVPGERTGKFRIGKDNLLSNEQGSRISFEDYAIALADEIEKPQHSRQRFTVGY”, the “soluble on expression in E. coli” value was “not soluble”.
With “MAKKVLIISSSPRKGGNSDMLCDEFMKGVLETGNEVEKIFLKEKVIHPCTGCSVCSMYGKPCPQKDDAAGIVEKMIAADVIVMATPVYFYTMCGQMKIMIDRCCARYTEITNKEFYFIIAAAENDKGMMERTIDGFRGFLDCLENPQEKGVIYGIGAWKVGEIKDTPYMQEAYEMGKMV” the “soluble on expression in E. coli” value was “not soluble”.
In the case of “MAKKVRSVHECSECGYSSPKWLGRCPECGSWGSMEERTVGESGGAARAAVSGAAPAGLTPTSPAVPIGKIVASQATSISTGIGELDRVLGNGIVPGSVVLMAGEPGVGKSTLLLEVASRWASMKEGDGTRTALYVTAEESAGQVRLRAERTAAVKDTLYLAAESNLDVVFGHVNQVKPSLLIVDSVQTMHAAGVEGVAGGVAQSRAVTAALTTLAKTSGIPILLVGHVTKDGNVAGPRVLEHLVDVVLNFEGDRHSSLRMLRGIKNRFGATDEVGCFEQQSDGIKEVPDPSGLFLSHRGSTPDGTAVTVAMDGVRPLLAEVQSLLVDAPSKNPRRVVTGLDANRVPMVLAVLSARAGRQTQGKDAYVATVGGMKVGEPATDLAVALATASALAKKPLPDKTVVLGEVGLAGEIRRVPNVDRRLAEAERLGYEKAVIPGGSGIKQTSLRVIEASTLAEALAAVSLLEHHHHHH”, the “soluble on expression in E. coli” value is reported as “not soluble”.
For “MAKLFAYQIGQNPRIQTDLLVDPQLFEDEHGCMGAVGFGLADCVQTGMFTDIEVIKRYLHEATYVFINGDFDRLSYLEIGIALSLGKTLYVITMNPNVTKEDLGIPFDNATIEFLSPSAFTERIHETEAAEN”, the “soluble on expression in E. coli” value was “not soluble”.
With “MAKNGGFSLFAKKEKRFIFEGRHSASDKLVNGEVSAFTEEEARKKLAKRGIRPLQITRVKTSSKRKITQEDITVFTRQLSTMIKAGLPLMQAFEIVARGHGNPSMTEMLMEIRGEVEQGSSLSRAFSNHPKYFDRFYCNLVAAGETGGVLESLLDKLAIYKEKTQAIRKKVKTALT” the “soluble on expression in E. coli” value was “not soluble”.
For “MAKNTLSFVCQNCGAAYNRWQGKCESCGEWNTLAEEDTSGSVPVSIRSKRKGRTFALESLAGKSPDAPRLSSGMTELDRVTGGGFVRGSVLLVGGDPGIGKSTLLTQATSLMARAGHRIVYISGEEAIAQVRLRAERLGLSDAPVQLAAETSVEDIVSTLSEGAVPRLIVIDSIQTMWTDTVESAPGTVTQVRASAQALIRFAKKTGAAIILVGHVTKDGQIAGPRVVEHMVDAVMSFEGEGSQQFRILRAVKNRFGPTDEIGVFEMTGLGLREVTNPSELFLSERDLGTPGTAVFAGIEGTRPVLVELQALVAPTSLGTPRRAVVGWDPSRLSMVLAVLEAHCGVKLSGHDVYLNVAGGLRIHEPAADLAAAAALVSSLVNAQLPTDAVYFGEISLSGVVRPVAQTPARLKEAAKLGFQRAVLPESARGEAGGDAGLSLNAVNSLTTLVAEIAARGSRRGESGGSAEKNATPARFRRGEGLEHHHHHH”, the “soluble on expression in E. coli” value was “not soluble”.
For “MAKPFTPEQREELKTRIVELVHQDGRVTIRQLSDETGISRASVGRLCIELVASGDVYNSGYGLFPSEQARKDWQSARKKLSRVKVRKPVVVDPDLIWSLPDGEIRRYDRRLNIICRECRKSEAMQRVLAFYQGNFQEAIL”, the “soluble on expression in E. coli” value was “not soluble”.
In the case of “MAKPIPVKVVVLTTFEIGAVTGDRPGEFQPWVEGLPLTETIAVPGLRHPARYSPKDGVLGVMTDMRARARESVAALLLDKRFDFSKTYWLVAGIAGVDPKAASIGSAAWARYVVDADPIYEVDDREIPADWPYGLYALETERPNVKGSAEGSSGMVWALNWRLVDWAYGLTAKVEIPDHPGLAALRAPYVGDPNAQRPPFVLKGEALGATRFWHGAKRTQWAQDWVKLWTDGAGVFVMTDCEDQGILDVLDLYAKAGRVDFQRVMVLRTASNYSRPPLGAPAFPRAFHDEGAVSAFDSAYRVGSVVVRELTARWDRYEANTPDMTAIGGTAKLEHHHHHH”, the “soluble on expression in E. coli” value is reported as “not soluble”.
In the case of “MAKPLMAKATAVWLVDNTTISFKQIADFVGMHELEIQGIADGDVAAGVKGFDPIANNQLTQEEIDKAEQNPLHKLKLKFNPAAAGEEKRRGPRYTPLSKRQDRPNAILWLVKFHPELSDGQIAKLVGTTKPTIQSIRERTHWNISNMQPIDPVALGLCRQSELDSVVQKAAAKKAAEGGVMSDDERRKLVSTEQSLGMDTGPRIPTAIEGLENFSLSEPISTSDDDEEDHRSIADADSFFNLPKGGTDDEDEDDDPRYLEHHHHHH”, the “soluble on expression in E. coli” value is reported as “soluble”.
For “MAKPSTSLLKRRLDIAEIVRKNGEIKVDDLAEMLSVSGVTIRNDLNYLEQQGYLKRSFGGAIYTAQPVRAAVSHEVVQSQALEHSVELELAKQVARLVCDDDTVFLGAGEVLRKALPFLGDYRDLCLIINDLSHVAPARDYIDGEIVLLGGVLGHSGQALGGEIAIQSLQQFQPSCCLVMVDHISEDGTLNVKNESAAALLSECLRLSGQSIAVVAQRPIHDVARYPVGKLNTLSAIITPQIVAAEYHSRFLADGLTNSYTNNECLTWINPTLHQARLEHHHHHH”, the “soluble on expression in E. coli” value was “not soluble”.
With “MAKQELGTKRVDPETGKKFYDLNRDPIVSPYTGISYPRSYFEVAAAEANSEEEVDTEELDTALEKSAFMLLEDDGDDPKDDDLPDLEDSDVDLGDDDDTFLSHDEDDEDDDVTDILGGGVSKDDDS” the “soluble on expression in E. coli” value was “not soluble”.
For “MAKRDYYEVLGVSRDAEEREIKKAYKRLAMKFHPDRQSEDKNAEEKFKEAKEAYEILTDAQKRAAYDQYGHAAFEQGGMGGGGFGGGGGGADFSDIFGDVFGDIFGGGRRQQRASRGSDLRYNMDLTLEEAVRGVTKEIRIPTLDECDVCHGSGAKPGSSPVTCPTCHGAGQVQMRQGFFTVQQACPHCHGRGQIIKDPCNKCHGHGRVEKSKTLSVKIPAGVDTGDRIRLSGEGEAGEHGAPSGDLYVQVQVKAHPIFEREGNNLYCEVPINFAMAALGGEIEVPTLDGRVKLKIPAETQTGKMFRMRGKGVKSVRGGSQGDLLCRVVVETPVSLSEKQKQLLRELEESFVGAAGEKNSPRAKSFLDGVKKFFDDLTR”, the “soluble on expression in E. coli” value was “not soluble”.
In the case of “MAKRIQFSTVGGPEVLEYVDFEPEAPGPQAVVVRNKAIGLNFIDTYYRSGLYPAPFLPSGLGAEGAGVVEAVGDEVTRFKVGDRVAYGTGPLGAYSEVHVLPEANLVKLADSVSFEQAAALMLKGLTVQYLLRQTYQVKPGEIILFHAAAGGVGSLACQWAKALGAKLIGTVSSPEKAAHAKALGAWETIDYSHEDVAKRVLELTDGKKCPVVYDGVGQDTWLTSLDSVAPRGLVVSFGNASGPVSGVNLGILAQKDSVYVTRPTLGSYANNAQNLQTMADELFDMLASGKLKVDGIEQYALKDAAKAQIELSARRTTGSTILIP”, the “soluble on expression in E. coli” value is reported as “soluble”.
With “MAKRIVAMSSTHIAMLDAIGEVRCITGVSGIDYISNPDIQARRDSIGDVGYEGNINYELLLSLDPDLVLLYGVNGASAMESKLEELDIPFMYVGDYLEESPLGKAEWMVVLSEVTGKREKGEKAFAAIPVRYNALKKKVADSTLEHHHHHH” the “soluble on expression in E. coli” value was “soluble”.
